This is an account of results in the DeepSol protein solubility set.

The series in a line: soluble on expression in E. coli; label from the status in PepcDB or PDB records.
With “MSLIELWPAIDLIGSTSVRLTEGKYDSEEKMSRSAEESIAYYSQFECVNRIHIVDLIGAKAQYAREFDYIKSLRRLTTKDIEVGGGIRTKSQIMDYFAAGINYCIVGTKGIQDTDWLKEMAHTFPGRIYLSVDAYGEDIKVNGWEEDTELNLFSFVRQLSDIPLGGIIYTDIAKDGKMSGPNFELTGQLVKATTIPVIASGGIRHQQDIQRLASLNVHAAIIGKAAHQASFWEGLEEGHHHHHH”, the “soluble on expression in E. coli” value is listed as “soluble”.

“MSLIFNKNCNVNKETQIEAFAIKNHDKKFVYPMGNIIGVKANTDGVLVLGYEEEDVDYIGGIQIGDNIVKIDNKRIKNSQDVSEILNKIKKSKVEVTFERKNKYKTEVIETKKENGKYKLGLWVRDKISGIGTMTFYDPSMEKFKAIGHAIKDSDTNELLKIKQGYIYKPEQLKIVKASNEKVGKIKGDFNDSNLMGNFSNNSELGISGNITENHNKEFNVANKEKQLIEVGRPQDVKIGDAVILFEDKNKNITSYDIKIESIVYDKGNYRDMVIKVVDDKLLEYTGGIVQGMSGAPIIQNNKIIGAITHVFRDNPKKGYGIFIDEMIKLEGHHHHHH”: the “soluble on expression in E. coli” value is given as “soluble”.

With “MSLIIIISGPPGSGKTSVAIKLANELSYKFISAGKIFRDIAQSMGLDIINLNRVAESNFDIDKMVDKKIHEYVLRERNLIVESHIAGWIFREYTDVAIYLWAPLKIRANRIAIRDKISYVEAVSQIIRREYMHYKRFNKFYGIDINDLSVFDLVINTSNIDINNIVKLILDYLSSVSHNEGHHHHHH”, the “soluble on expression in E. coli” value is given as “soluble”.

On to “MSLINLWPLLLPAAAWSGWWLANRSNSNKDAHVHNRLSREYVVGLNYLLNEQSDKAVDVFIKLLEVDSDTVETHLALGSLFRRRGEVDRAIRIHQNLIARPQLSIQQRKEALMALGQDYMSAGVFDRAERIFLEVVELGGSRDTSSLQGLLAIYQQEKAWEKALDIIKKLEISTGASFHNQAAHYYCEMASQALKINAMDRAIYCIKQAMNVDPESVRASLMNATIEIKEGRYKQAIRSLKRVPQQDAEFLTEIIEPLVLCHKELDSMPDCIHYLEQTLEKHPRASVIFVIADYLRQNKGMDIAIDFVADNLSKHPSIRGLNRLIYWHLESAHGKVREKLQMLYDITSKFLDNKPIYRCGHCGFGGKHLHWHCPSCKQWGRMKPIHGLEGDEGHHHHHH”, for which the “soluble on expression in E. coli” value is recorded as “not soluble”.

Consider “MSLIREQVVRPLNAMVDASEKIKNRNFDVMLEETSSTEMGILSRTFNSMAGDLGKLYRGLEHAVNEKTNKLQMANQSLQVLYHSSQELTASRITASNFQTILRHWVALEGICALRLEIEEEAGKPLILQEGKPSGAVMLQTPLTLDGHHLGFLYWEAGSPEPDRALIDNFALILSRAIYYNQAQRQAEQLLLMEERATIARELHDSLAQSLSYLKIQLTLLKRSVTPLKSDGDLSKTENIIREIDKGLSDAYTQLRELLTTFRLTLTEGSFGQSLLGMLTQLSGQTDAKIELNNALSSIALDAHQQVHLVQLIREATINAIKHAKATKIKVNCQEQQGRVQVTIEDDGVGFDLQDHKINHYGMSIMQERAARLRGELKVESAPGKGCKVVLTYQQSEEKNKNEEGHHHHHH”, for which the “soluble on expression in E. coli” value is “soluble”.

Consider “MSLIRSMTGFGRASNDNGRLGFNVEIKSVNHRYFDLNIKLPRNLISLEEKIRKEVGNKIKRGKVDIFITQNVYDSSTTNVNLNKGLAYNYCECLKQIRDDFNVLDDISVSLISKFPDVITVTQNEEDLDEISSLLLKPINEAVDTMLSMREKEGARLKEDIEGKLTNIEELLVNVEKRAPYTVENYRNKLEERIKDLLVDNQVDEAKLAMEVTIFADKSCIDEEIVRLKSHISQFKSTLSENEPVGRKLDFIVQEMNREANTINSKSNDIDIVHCVLDIKNEIEKIREQIQNIEEGHHHHHH”, for which the “soluble on expression in E. coli” value is “soluble”.

Turning to “MSLIVVTGGAGFIGSHVVDKLSESNEIVVIDNLSSGNEEFVNEAARLVKADLAADDIKDYLKGAEEVWHIAANPDVRIGAENPDEIYRNNVLATYRLLEAMRKAGVSRIVFTSTSTVYGEAKVIPTPEDYPTHPISLYGASKLACEALIESYCHTFDMQAWIYRFANVIGRRSTHGVIYDFIMKLKRNPEELEILGNGEQNKSYIYISDCVDAMLFGLRGDERVNIFNIGSEDQIKVKRIAEIVCEELGLSPRFRFTGGDRGWKGDVPVMLLSIEKLKRLGWKPRYNSEEAVRMAVRDLVEDLDEEGHHHHHH”, the “soluble on expression in E. coli” value is recorded as “soluble”.

As for “MSLKAIIYCRVSTEKTSQETSLARQKHELLTLANKHALEVVATLEERASGFSLDRPVLLECIDAFQRGQADILLCQDDTRLARGHSKIALLHQLRKLGVSIYTIRDQGELRLSEADEMVLDIVAIVEEYQRKLHNKKIKRGMKQAVKNGYRPERNIKQGVSGGRERKELPIKEIVRLRQKNLTFHEIALTLQGLGFNVSKATVHRRYQEYMDEQLHGEGHHHHHH”, the “soluble on expression in E. coli” value is given as “soluble”.

In the case of “MSLKDGKLGLPIPEAVKIIPELNNYVINGKLDFSNRQARILYNKAIAKALFGLDIEYHPKGLVTTPISRYIFLKTFLRGGEVALEIGTGHTAMMALMAEKFFNCKVTATEVDEEFFEYARRNIERNNSNVRLVKSNGGIIKGVVEGTFDVIFSAPPYYDKPLGRVLTEREAIGGGKYGEEFSVKLLEEAFDHLNPGGKVALYLPDKEKLLNVIKERGIKLGYSVKDIKFKVGTRWRHSLIFFKGISEGHHHHHH”, the “soluble on expression in E. coli” value is “soluble”.

Consider “MSLKEKLVAIVGPTAVGKTKTSVMLAKRLNGEVISGDSMQVYRGMDIGTAKITAEEMDGVPHHLIDIKDPSESFSVADFQDLATPLITEIHERGRLPFLVGGTGLYVNAVIHQFNLGDIRADEDYRHELEAFVNSYGVQALHDKLSKIDPKAAAAIHPNNYRRVIRALEIIKLTGKTVTEQARHEEETPSPYNLVMIGLTMERDVLYDRINRRVDQMVEEGLIDEAKKLYDRGIRDCQSVQAIGYKEMYDYLDGNVTLEEAIDTLKRNSRRYAKRQLTWFRNKANVTWFDMTDVDFDKKIMEIHNFIAGKLEEKSKEGHHHHHH”, for which the “soluble on expression in E. coli” value is “soluble”.

As for “MSLKEYKSKIEFSVYSTSGMKTRMEDYYLCIKNMNKMIQKEKKELTYFGVFDGHVGTSAADYCNFKLYNEIVRSKSFPKNIENAIQDGIINVENGFKEIAMKTKVNAGTTLAIVMIYDNTIYTANVGDSEIVVCYNDGSYVVTSEKHNPSVDKEKARIESAGGKVFYNHGWRVDGLLGVSRSIGDESMKKYVICQPKIWSKAIDSSFQFIIVACDGFWNVFKYEDAINLARNYLFNYSFSNEEDKDSNGIILPRNKGDVSRYLIDIALKRQSFDNITVTICYFNEGHHHHHH”, the “soluble on expression in E. coli” value was “soluble”.

Take “MSLKGSLMPANVLFSARSELWPVYQPLISTYLREMGIDFDLRRDFPPEEVDYVVYAPNGGLRDFTPFTRLKAVLSLWAGVESIADNPTLTVPLARMVDHGLTQGMTEWVVGHVLRYHLGMDAHIHGLNGDWRQDVPPLASQRQVTILGLGALGEAAARALSALGFQVTGWSRSPKELPGIACLHGPDGLDQALARAEILVLLLPSTAATENTLNTQTLARLPRGARIINPGRGPLIDDDALLAALDSGQVGHATLDVFRIEPLPRDHPYWGHPNVTVTPHIASETRPETAAQVICEEGHHHHHH”: the “soluble on expression in E. coli” value is reported as “soluble”.

With “MSLKHLIKNYVQKLIKTELDAIQSKSVHDNRNFIYNGEFLILESEFGLHCFPRVQLNHALSYKNPNFDLGMRHWIVNHCKHDTTYIDIGANVGTFCGIAARHITQGKIIAIEPLTEMENSIRMNVQLNNPLVEFHHFGCAIGENEGENIFEVYEFDNRVSSLYFQKNTDIADKVKNSQVLVRKLSSLDISPTNSVVIKIDAEGAEIEILNQIYEFTEKHNGIEYYICFEFAMGHIQRSNRTFDEIFNIINSKFGSKAYFIHPLSSAEHPEFNKATQDINGNICFKYVSEGHHHHHH”, the “soluble on expression in E. coli” value was “soluble”.

For “MSLKHLKGNKNTFQKRMYCKKTEIDLSKSGTGLFPGAFYMNRHVKRVILPDYADTVPANLFKGCINLKEVTLPIDPNIGEAAFEGCISLTDIHIPLCIGSIATNAFRGCRENIRFYADSPAVNPKTLKQHIEKELGHSIELYNASGNLVESTEGHHHHHH”, the “soluble on expression in E. coli” value is “soluble”.

As to “MSLKIDIHPLTHDPTSAWKELSKSQRVIKINTKPPAVDVPSNKVRVVCMSDTHSLTHHIKFDIPDGDIFIHAGDFTRCGKLDEVVDFNEWLKKLPHKHKLVIAGNHELSFDHTFTHPFQNASACCKKTGSTLLDEIPTLGNSKESLAEAVKTENIRQYLSSCTYLQDECVELYGLKIYGTPWQPEFCKWAFNVKRGQACLEKWEQIPENVDILVTHTPPVGHGDLCCSGVRAGCVELLATVQQRVKPKYHVFGHVHEGYGITSDGRIIFVNASTCDINYLPNNQPIVFDVTLPKGRTKDEGHHHHHH”, the “soluble on expression in E. coli” value was “soluble”.

With “MSLKIKFKRLDYQEQCRDQILGVFKGIDLKEPENDAQRISNPVFEIGAIKDLLLENIENLRSKQKITQGSVGIDKSLNCDILMETGTGKTFCFLECVYALHKNHHLSKFIVLTPSNAIKLGVLKSVEITREFFKSEYSNTHLESYEDIERFILASNHKCCVLVMTFSAFNKEKNTINKSCLENTNLFNGATSYMQALVSMRPIVIMDEPHRFLGDKTKKYLEQLNALLTLRFGATFKDDYNNLIYTLDSKKAFDCALVKSISVASVGESNECFLELKGIEKKEAAINYTDLENKTQSVKVKEHDNLGVVTQISALEDYIVEKITKTEIRFLNGFNLLLDQKEPFSHLLEGEQEVMLKEAIKSHFEREEGLFKKGIKALCMVFISGVNSYLSENEKPAKLALLFEKLYQQKLEEVLKKPLDENYRAYLECTREDIKKVHGGYFAKSKKEGDETKTIELILKEKEKLLSFDSDLRFIFSQWALQEGWDNPNVMTICKLAPSHSNITKLQQIGRGLRLAVNDKGERITKEHADFDFVNELVVIVPQVEGDFVGAIQQEISEHSLIKQEFSAEELEKSGVVKKGRYGFLLETLEGLGFGEKTGDENFKLTLNQNEFLEKEPELEKLKDEKYLDFEKLKDFLKDRLIGNSRVRDKNERKSEKIKINKENFKKFETLWESLNHQARIAYAIDSESLIDEIVKNINSSFNVSSKIVSVTTHKKVETMGNNAKTEIFERENACVWSLHEFISALSNKVKLSFKSVAKVLENIDENKFNEIKKNEQEGLRRLEELFLEIIYQNIKDKISYQMRETTIKNRKNDAFYDEKGEIREFLDGSLGADKYEIKNSSVREKCLYENFMQVDSEIEKDTIEESNDTKIIVFGKLPRVKIPIGLNQTYSPDFGYVVENNDKKVLLVVETKGVDKKSELRPEEERKISTAKKFFEALKKQGVNIEYKTKMEKDQLSALINEVLNRKDEGHHHHHH”, the “soluble on expression in E. coli” value is recorded as “not soluble”.

Regarding “MSLKILLLEDEVMLNESICEYLDSEGHHVESFFNGLAALEAIKENSYDLLVLDINVPGIDGLSFLEKIHELKIHVSVIYISALVDIEDISRAYTLGCHDYLKKPFHLKELSLRVDRIKLSSVVPRVHLRLCKNYSYDQENSTLLFNQEVQILTKRQAQIIDLLSRNRGRIVDFEQFQTYVWSEQIVDNATIRAEINRLKKNLKEDFVINVRGMGYMIDKEGHHHHHH”, the “soluble on expression in E. coli” value is listed as “not soluble”.

“MSLKILLMLLCVSVLGCSKNSVESEKPVDVLLIGGGIMSATLGTYLNELEPGWTIEMVERLDKVAEESSNGWNNAGTGHSAFCELNYTSEAADGSMDISKAVAINENFEISKQFWAYQVDRKVLNDPKSFINNVPHMSFVWGDDNVAFLKKRHAALQHSSLFRGMEYSEDPEQIKQWVPLVMEGREPGQKIAATRMSIGTDVNFGEITRQLVGSLSAKDTFKLRLQHEVRDLKRNDDNTWTVTMADLANGDKETSVKARFVFIGAGGGALKLLQMSGIPEAEGYAGFPVGGSFLATTNPDVVKRHLAKVYGKASVGSPPMSVPHLDTRMIDGKPVLLFGPFATFSTKFLKNGSLWDLPGSVTSGNIGPMFNAGIDNFDLSQYLIGQLMLSQDDRMASLREYFPEARDEDWKLVQAGQRVQIIKKDAEKGGVLQFGTEVVTAADGSVAALLGASPGASTAAPIMLSVLEKAFKDKVATPEWQARLKEIVPSYGRKLNNDIELTNSTRAWSSERLQLIHVPVQEGGSHHHHHH”: the “soluble on expression in E. coli” value was “soluble”.
